From patent US20080219971A1 (VACCINEX, published 2008)
Residue numbers refer to the chain shown, from its start. In names and notes the source's numbering stands.

T1: Human CD100 (human, UniProt Q92854 22-734, limits assumed)
T1 construct: also called SEMA4D; Hu CD100
T1 sequence (looked up): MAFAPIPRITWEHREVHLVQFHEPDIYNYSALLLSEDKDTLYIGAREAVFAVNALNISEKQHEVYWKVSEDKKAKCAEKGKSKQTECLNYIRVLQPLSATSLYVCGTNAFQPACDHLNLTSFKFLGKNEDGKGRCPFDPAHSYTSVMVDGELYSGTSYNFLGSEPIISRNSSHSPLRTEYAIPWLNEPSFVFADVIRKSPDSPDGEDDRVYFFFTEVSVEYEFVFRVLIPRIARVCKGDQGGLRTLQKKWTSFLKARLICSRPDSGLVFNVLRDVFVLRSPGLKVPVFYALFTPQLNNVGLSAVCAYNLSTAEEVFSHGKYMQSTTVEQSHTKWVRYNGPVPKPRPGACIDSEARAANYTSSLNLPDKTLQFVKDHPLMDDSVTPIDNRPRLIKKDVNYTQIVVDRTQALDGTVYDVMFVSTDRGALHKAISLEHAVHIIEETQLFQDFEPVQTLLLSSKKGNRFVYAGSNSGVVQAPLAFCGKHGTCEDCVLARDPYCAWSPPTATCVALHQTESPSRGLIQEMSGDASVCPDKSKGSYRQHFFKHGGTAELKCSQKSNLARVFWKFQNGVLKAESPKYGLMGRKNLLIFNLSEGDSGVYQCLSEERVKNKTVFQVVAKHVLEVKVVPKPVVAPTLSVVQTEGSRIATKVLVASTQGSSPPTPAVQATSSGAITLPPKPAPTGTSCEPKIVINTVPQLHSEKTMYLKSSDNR

T2: human CD100-Fc (human, UniProt Q92854 22-734, limits assumed)
T2 construct: also called CD100-Fc antigen
T2 sequence (looked up): T1 sequence (looked up)

B1: MAb 2117 (antibody, V domains shown)
VH: QVQLVQSGAEVKKPGSSVKVSCKASGYTFTDYYMDWVRQAPGQGLEWMGRVNPYHGGATYNQKFKGRVTITADKSTSTAYMELSSLRSEDTAVYYCAREENSYTGYYGMDYWGQGTLVTVSS
VL: DIVMTQSPLSLPVSPGEPATINCKSSQSLFNSGNQKNYLAWYLQKPGQPPKLLIYGASTRESGVPDRFSGSGSGTDFTLTISSLQAEDVAVYYCQNDHTYPYTFGQGTKLEIK
notes: H1651 mutant VH combined with L284; also called H1651 D104T with L284
B2: MAb 2208 (antibody, V domains shown)
VH: B1 VH with A58G, T104D
VL: B1 VL
notes: H1651 mutant VH combined with L284; also called H1651 A58G with L284
B3: MAb 2220 (antibody, V domains shown)
VH: B1 VH with Y60F, T104D
VL: B1 VL
notes: H1651 mutant VH combined with L284; also called H1651 Y60F with L284
B4: MAb 2125 (antibody, V domains shown)
VH: B1 VH with E100D, T104D
VL: B1 VL
notes: H1651 mutant VH combined with L284; also called H1651 E100D with L284
B5: MAb 2216 (antibody, V domains shown)
VH: B1 VH with T59F, T104D
VL: B1 VL
notes: H1651 mutant VH combined with L284; also called H1651 T59F with L284
B6: MAb 2202 (antibody, V domains shown)
VH: B1 VH with G57F, T104D
VL: B1 VL
notes: H1651 mutant VH combined with L284; also called H1651 G57F with L284
B7: MAb 2144 (antibody, V domains shown)
VH: B1 VH with Q6A, T104D
VL: B1 VL
notes: H1651 mutant VH combined with L284; also called H1651 Q6A with L284
B8: MAb 2163 (antibody, V domains shown)
VH: B1 VH with D31K, T104D
VL: B1 VL
notes: H1651 mutant VH combined with L284; also called H1651 D31K with L284
B9: MAb 2139 (antibody, V domains shown)
VH: B1 VH with K23T, T104D
VL: B1 VL
notes: H1651 mutant VH combined with L284; also called H1651 K23T with L284
B10: MAb 657 (antibody, human IgG1, V domains shown)
VH: B1 VH with M48I, R67K, V68A, A72V, T104D
VL: B1 VL
notes: Humanized BD16, human IgG1; also called H1235/L284
B11: MAb 1656 (antibody, human IgG1, V domains shown)
VH: B1 VH with T104D
VL: B1 VL
notes: Humanized BD16, fully human frameworks, human IgG1; also called H1651/L284
B12: MAb 1807 (antibody, human IgG4, V domains shown)
VH: B1 VH with M48I, R67K, V68A, A72V, T104D
VL: B1 VL
notes: Humanized BD16, human IgG4; also called H1235/L284
B13: MAb 301 (antibody, human IgG1, V domains shown)
VH: EVQLQQSGPELVKPGASVKMSCKASGYTFTDYYMDWVKQSHGESFEWIGRVNPYHGGATYNQKFKGKATLTVDKSSRTAYMELNSLTYEDSAVYYCAREENSYDGYYGMDYWGQGTTVTVSS
VL: DIVLTQSPSSLSVSAGEKVTMDCKSSQSLFNSGNQKNYLAWYHQKPGQPPKLLIYGASTRESGVPDRFTGSGSGTDFTLTISSVQAEDLAVYYCQNDHTYPYTFGGGTKLEIK
notes: Chimeric, human IgG1, human kappa constant domain; also called chimeric BD16; H387/L124
B14: MAb 2206 (antibody, V domains shown)
VH: B1 VH with G57W, T104D
VL: B1 VL
notes: H1651 mutant VH combined with L284; also called H1651 G57W with L284
B15: MAb 2218 (antibody, V domains shown)
VH: B1 VH with T59V, T104D
VL: B1 VL
notes: H1651 mutant VH combined with L284; also called H1651 T59V with L284
B16: MAb 2225 (antibody, V domains shown)
VH: B1 VH with Y60V, T104D
VL: B1 VL
notes: H1651 mutant VH combined with L284; also called H1651 Y60V with L284
B17: MAb 2224 (antibody, V domains shown)
VH: B1 VH with Y60P, T104D
VL: B1 VL
notes: H1651 mutant VH combined with L284; also called H1651 Y60P with L284
B18: MAb 2219 (antibody, V domains shown)
VH: B1 VH with T59W, T104D
VL: B1 VL
notes: H1651 mutant VH combined with L284; also called H1651 T59W with L284
B19: MAb 2207 (antibody, V domains shown)
VH: B1 VH with G57Y, T104D
VL: B1 VL
notes: H1651 mutant VH combined with L284; also called H1651 G57Y with L284
B20: MAb 2284 (antibody, V domains shown)
VH: B1 VH with K23T, Y60F, T104D
VL: B1 VL
notes: Double mutant of H1651 with L284; also called H1651 K23T Y60F with L284
B21: MAb 2274 (antibody, V domains shown)
VH: B1 VH with Q6A, D31K, T104D
VL: B1 VL
notes: Double mutant of H1651 with L284; also called H1651 Q6A D31K with L284
B22: MAb 2279 (antibody, V domains shown)
VH: B1 VH with Q6A, Y60V, T104D
VL: B1 VL
notes: Double mutant of H1651 with L284; also called H1651 Q6A Y60V with L284
B23: MAb 2275 (antibody, V domains shown)
VH: B1 VH with Q6A, G57F, T104D
VL: B1 VL
notes: Double mutant of H1651 with L284; also called H1651 Q6A G57F with L284
B24: MAb 2280 (antibody, V domains shown)
VH: B1 VH with K23T, D31K, T104D
VL: B1 VL
notes: Double mutant of H1651 with L284; also called H1651 K23T D31K with L284
B25: MAb 2277 (antibody, V domains shown)
VH: B1 VH with Q6A, T59F, T104D
VL: B1 VL
notes: Double mutant of H1651 with L284; also called H1651 Q6A T59F with L284
B26: MAb 2281 (antibody, V domains shown)
VH: B1 VH with K23T, G57F, T104D
VL: B1 VL
notes: Double mutant of H1651 with L284; also called H1651 K23T G57F with L284
B27: MAb 2283 (antibody, V domains shown)
VH: B1 VH with K23T, T59F, T104D
VL: B1 VL
notes: Double mutant of H1651 with L284; also called H1651 K23T T59F with L284
B28: MAb 2282 (antibody, V domains shown)
VH: B1 VH with K23T, G57Y, T104D
VL: B1 VL
notes: Double mutant of H1651 with L284; also called H1651 K23T G57Y with L284
B29: MAb 2276 (antibody, V domains shown)
VH: B1 VH with Q6A, G57Y, T104D
VL: B1 VL
notes: Double mutant of H1651 with L284; also called H1651 Q6A G57Y with L284
B30: MAb 2285 (antibody, V domains shown)
VH: B1 VH with K23T, Y60V, T104D
VL: B1 VL
notes: Double mutant of H1651 with L284; also called H1651 K23T Y60V with L284
B31: MAb 2278 (antibody, V domains shown)
VH: B1 VH with Q6A, Y60F, T104D
VL: B1 VL
notes: Double mutant of H1651 with L284; also called H1651 Q6A Y60F with L284

target: T1, Human CD100; test: affinity testing, method and unit not printed in Example 10 (nM as in Table 3); mutant value, before the parentheses

| Binder | Kd [nM] |
| --- | --- |
| B1 | 0.52 |
| B2 | 0.08 |
| B3 | 0.04 |
| B4 | 0.66 |
| B5 | 0.06 |
| B6 | 0.06 |
| B7 | 0.43 |
| B8 | 0.06 |
| B9 | 0.61 |

target: T3, BSA (UniProt P02769 25-607); test: ELISA
T3 construct: Negative control antigen
T3 sequence (P02769 25-607 limits assumed): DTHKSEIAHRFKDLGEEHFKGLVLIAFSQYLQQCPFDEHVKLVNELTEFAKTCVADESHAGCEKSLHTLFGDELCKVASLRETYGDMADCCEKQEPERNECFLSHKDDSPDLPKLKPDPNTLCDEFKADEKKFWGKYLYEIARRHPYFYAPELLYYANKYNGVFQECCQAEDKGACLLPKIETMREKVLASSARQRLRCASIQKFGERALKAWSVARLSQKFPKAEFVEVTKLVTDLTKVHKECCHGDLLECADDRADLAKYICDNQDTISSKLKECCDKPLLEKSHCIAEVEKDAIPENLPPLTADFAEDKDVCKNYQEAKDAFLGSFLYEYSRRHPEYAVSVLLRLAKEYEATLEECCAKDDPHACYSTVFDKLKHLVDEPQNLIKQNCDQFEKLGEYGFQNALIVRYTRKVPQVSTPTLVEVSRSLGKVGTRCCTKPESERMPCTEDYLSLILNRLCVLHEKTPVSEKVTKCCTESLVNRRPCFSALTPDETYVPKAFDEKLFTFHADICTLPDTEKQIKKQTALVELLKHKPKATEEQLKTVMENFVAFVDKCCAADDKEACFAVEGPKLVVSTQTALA

| Binder | binding result |
| --- | --- |
| B10 | no binding |
| B11 | no binding |
| B12 | no binding |
| B13 | no binding |

target: T4, streptavidin (UniProt P22629 37-163, limits assumed); test: ELISA
T4 construct: Negative control antigen
T4 sequence (P22629 37-163 limits assumed): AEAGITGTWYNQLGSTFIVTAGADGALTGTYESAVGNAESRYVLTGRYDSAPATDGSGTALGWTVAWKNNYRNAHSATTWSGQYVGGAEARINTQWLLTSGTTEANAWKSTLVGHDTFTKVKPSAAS

| Binder | binding result |
| --- | --- |
| B10 | no binding |
| B11 | no binding |
| B12 | no binding |
| B13 | no binding |

target: T5, huErb2-Fc (human, UniProt P04626 23-652); test: ELISA
T5 construct: Negative control antigen; also called huErb2-Fc antigen

| Binder | binding result |
| --- | --- |
| B11 | no binding |
| B12 | no binding |

target: T6, human serum albumin (human, UniProt P02768 25-609); test: ELISA
T6 construct: Negative control antigen
T6 sequence (P02768 25-609 limits assumed): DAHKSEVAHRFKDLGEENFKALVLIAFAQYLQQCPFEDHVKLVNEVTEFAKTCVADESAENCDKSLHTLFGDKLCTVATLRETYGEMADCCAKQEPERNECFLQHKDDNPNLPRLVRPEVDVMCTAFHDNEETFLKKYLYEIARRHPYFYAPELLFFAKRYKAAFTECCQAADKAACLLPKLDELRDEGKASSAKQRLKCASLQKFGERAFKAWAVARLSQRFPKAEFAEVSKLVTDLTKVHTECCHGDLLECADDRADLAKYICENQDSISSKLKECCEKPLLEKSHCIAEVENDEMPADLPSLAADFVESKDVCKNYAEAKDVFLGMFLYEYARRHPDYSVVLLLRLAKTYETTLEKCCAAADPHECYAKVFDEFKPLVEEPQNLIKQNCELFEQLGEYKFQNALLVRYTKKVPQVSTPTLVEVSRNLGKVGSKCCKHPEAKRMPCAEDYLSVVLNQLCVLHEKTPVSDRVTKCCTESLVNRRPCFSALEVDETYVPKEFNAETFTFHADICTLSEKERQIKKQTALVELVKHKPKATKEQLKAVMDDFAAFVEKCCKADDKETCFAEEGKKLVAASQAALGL

| Binder | binding result |
| --- | --- |
| B10 | no binding |
| B11 | no binding |
| B12 | no binding |
| B13 | no binding |

target: T5, huErb2-Fc; test: ELISA on huErb2-Fc antigen (Neg Ctrl)

| Binder | binding result |
| --- | --- |
| B10 | no binding (tested: 500 ng/ml) |
| B13 | no binding (tested: 500 ng/ml) |

target: T1, Human CD100; test: ELISA method of Friguet et al.; column head 'Affinity (nM) IC50 ELISA'; antigen not named
Description: Antibody affinity was measured according to the ELISA method described in Friguet et al. (1985) J Immunol Methods 77(2):305-19.

| Binder | Kd [nM] |
| --- | --- |
| B10 | 0.12 |
| B11 | 0.12 |
| B12 | 0.12 |

target: T1, Human CD100; test: affinity testing, method and unit not printed in Example 10 (nM as in Table 3)

| Binder | Kd [nM] |
| --- | --- |
| B14 | 0.09 |
| B15 | 0.08 |
| B16 | 0.04 |
| B17 | 0.07 |
| B18 | 0.08 |
| B19 | 0.06 |

target: T2, human CD100-Fc; test: ELISA on CD100-Fc antigen

| Binder | EC50 (read off the curve) [µg/mL] |
| --- | --- |
| B10 | ~0.03 |
| B13 | ~0.02 |

target: T1, Human CD100; test: affinity testing, method and unit not printed in Example 10 (nM as in Table 3); remark: another data set of the same source

| Binder | Kd [nM] |
| --- | --- |
| B20 | 0.24 |
| B21 | 0.1 |
| B22 | 0.14 |
| B23 | 0.09 |
| B24 | 0.13 |
| B25 | 0.09 |
| B26 | 0.09 |
| B27 | 0.13 |
| B28 | 0.09 |
| B29 | 0.09 |
| B30 | 0.1 |
| B31 | 0.11 |
